Experiments:
[1] = plasma insulin pharmacokinetics during euglycemic clamp; assay type: in vivo, human; conditions: Without InsuPatch activation, 0.2 unit/kg s.c. bolus, mean±SEM
[2] = tested on: adolescents with type 1 diabetes; experiment: euglycemic clamp, pharmacodynamics; assay type: in vivo, human; conditions: difference with vs without InsuPatch activation; 0.2 u/kg bolus

Substance: aspart insulin
- time to reach maximum increments in plasma insulin [1]: 67 ± 10 min
- TGIRmax earlier with IP activation than without [2]: 35 min

— paper PMC3572265 (Pediatric diabetes, 2012)
